Test results as given in the supplement of paper PMC10567573.

B1: SETD8 (parent)
chain: GKQAPRKKAQGKTQQNRKLTDFYP

Variants of: B1
Experiment: protein stability index of a GFP-peptide fusion (GPS, HEK-293T) (PSI 1-6); higher = more stable
Conditions: c terminus: a fixed tail appended
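Note: lentivirally expressed fusions sorted by FACS into six bins by GFP to DsRed ratio, PSI derived from sequencing read proportions per bin multiplied by bin number.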

Protein stability index: each site, then its substitutions
A9: P 3.43 | D 3.57
P5: I 3.36 | E 3.58 | C 1.99 | A 2.52 | F 2.95 | V 3.18 | Q 3.75 | H 2.85 | M 3.08 | L 2.74 | K 3.35 | S 4.65 | T 1.74 | G 4.29 | Y 2.2 | W 2.57
K12: A 2.76 | Y 3.42 | I 2.85 | G 3.37 | T 3.32 | N 3.07 | D 2.51 | W 3.08 | F 4.09 | E 3.66 | P 2.51 | L 3.21 | C 2.19 | R 2.99
Q10: Y 3.22 | W 2.08 | R 3.16 | I 2.86 | F 3.28 | V 3.01 | P 2.65 | E 2.78 | M 2.55 | A 3.52 | S 4.86 | D 3.17
R6: K 3.44 | I 2.76 | N 4.12 | S 3.46 | E 3.29 | C 2.82 | W 2.48 | H 3.07 | P 4.13 | T 3.21 | F 2.43 | V 2.68 | A 3.42 | Y 2.65 | D 3.67 | G 3.55
K18: V 3.75 | S 3.51 | L 2.56 | N 4.19 | E 3.2 | T 3.05 | I 4.29 | M 2.06 | F 3.85 | A 3.15 | Y 2.76 | D 4.87 | P 2.96 | Q 3.45 | H 2.69 | C 2.89
A4: V 1.83 | F 3.05 | Q 2.77 | K 3.73 | I 3.09 | C 3.34 | E 3.04 | T 2.71 | N 3.23 | W 3.3 | S 4.29 | R 3.15 | G 3.46 | P 2.63
Q3: F 2.67 | G 3.38 | A 2.63 | I 3.33 | V 2.28 | T 2.93 | K 3.85 | Y 3.58 | R 4.32 | P 2.01 | H 3.8 | D 3.41
L19: N 4.73 | Q 3.84 | W 2.97 | K 4 | E 4.62 | D 5.33 | F 3.27 | H 3.77 | Y 3.32 | A 4.54 | R 4.33 | S 4.39 | G 3.91
F22: T 4.57 | I 4.13 | L 4.51 | R 3.6 | H 4.13 | G 4.75 | S 4.69 | N 4.77 | A 4.61 | D 3.15 | Q 4.17 | P 4.98 | K 4.97 | E 4.61 | M 4.7
T13: E 3.83 | I 3.28 | M 2.16 | F 2.37 | G 3.35 | Q 3.93 | A 3.48 | D 3.09 | N 2.87 | R 3.82 | S 2.04 | V 3.39
N16: I 3.13 | V 3.57 | S 4.04 | A 3.02 | Y 1.96 | M 3.37 | E 3.65 | T 2.53 | P 2.45 | F 2.68 | K 2.91
G11: N 3.6 | D 2.94 | M 3.29 | A 4.17 | H 3.56 | I 3.73 | R 2.66 | Y 3.21 | K 2.91 | L 3.27 | S 3.55 | T 2.84 | P 3.46 | E 3.42
